Measurements published in patent US7378087.

Columns and labels:
[1] = molecular target: H-2K^b MHC class I molecule (mouse) (UniProt P01901); assay: FACS on RMA-S cells; IFN +, peptide +, hβ2m -
[2] = molecular target: H-2K^b MHC class I molecule (mouse) (UniProt P01901); assay: FACS on RMA-S cells; IFN +, peptide +, hβ2m +
[3] = molecular target: H-2K^b MHC class I molecule (mouse) (UniProt P01901); assay: FACS on CMT.64 cells; IFN -, peptide +, hβ2m +
[4] = molecular target: H-2K^b MHC class I molecule (mouse) (UniProt P01901); assay: FACS on RMA-S cells; IFN -, peptide -, hβ2m -
[5] = molecular target: H-2K^b MHC class I molecule (mouse) (UniProt P01901); assay: FACS on RMA cells; IFN +, peptide +, hβ2m +
[6] = molecular target: H-2K^b MHC class I molecule (mouse) (UniProt P01901); assay: FACS on RMA-S cells; IFN +, peptide -, hβ2m -
[7] = molecular target: H-2K^b MHC class I molecule (mouse) (UniProt P01901); assay: FACS on RMA-S cells; IFN +, peptide -, hβ2m +
[8] = molecular target: H-2K^b MHC class I molecule (mouse) (UniProt P01901); assay: FACS on RMA-S cells; IFN -, peptide +, hβ2m +
[9] = molecular target: H-2K^b MHC class I molecule (mouse) (UniProt P01901); assay: FACS on CMT.64 cells; IFN +, peptide -, hβ2m -
[10] = molecular target: H-2K^b MHC class I molecule (mouse) (UniProt P01901); assay: FACS on RMA cells; IFN +, peptide +, hβ2m -
[11] = molecular target: H-2K^b MHC class I molecule (mouse) (UniProt P01901); assay: FACS on CMT.64 cells; IFN -, peptide -, hβ2m -
[12] = molecular target: H-2K^b MHC class I molecule (mouse) (UniProt P01901); assay: FACS on RMA cells; IFN -, peptide +, hβ2m +
[13] = molecular target: H-2K^b MHC class I molecule (mouse) (UniProt P01901); assay: FACS on RMA cells; IFN -, peptide -, hβ2m -
[14] = molecular target: H-2K^b MHC class I molecule (mouse) (UniProt P01901); assay: FACS on RMA cells; IFN +, peptide -, hβ2m -
[15] = molecular target: H-2K^b MHC class I molecule (mouse) (UniProt P01901); assay: FACS on CMT.64 cells; IFN * (so in the source), peptide +, hβ2m +
[16] = molecular target: H-2K^b MHC class I molecule (mouse) (UniProt P01901); assay: FACS on RMA cells; IFN +, peptide -, hβ2m +

Chain of UniProt P01901 (P01901 22-305 limits assumed): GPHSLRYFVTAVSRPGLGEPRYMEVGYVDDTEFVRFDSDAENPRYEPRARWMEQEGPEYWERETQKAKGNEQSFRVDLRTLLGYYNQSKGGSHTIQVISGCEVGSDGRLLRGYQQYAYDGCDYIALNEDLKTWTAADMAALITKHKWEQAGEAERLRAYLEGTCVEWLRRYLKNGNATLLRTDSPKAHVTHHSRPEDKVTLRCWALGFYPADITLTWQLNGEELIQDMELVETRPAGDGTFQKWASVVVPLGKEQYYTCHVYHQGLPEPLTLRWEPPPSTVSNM

fluorescence units (arbitrary fluorescence units) [1]: 10
fluorescence units (arbitrary fluorescence units) [2]: 41
fluorescence units (arbitrary fluorescence units) [3]: 8
fluorescence units (arbitrary fluorescence units) [4]: 12
fluorescence units (arbitrary fluorescence units) [5]: 780
fluorescence units (arbitrary fluorescence units) [6]: 12
fluorescence units (arbitrary fluorescence units) [7]: 10
fluorescence units (arbitrary fluorescence units) [8]: 70
fluorescence units (arbitrary fluorescence units) [9]: 26
fluorescence units (arbitrary fluorescence units) [10]: 606
fluorescence units (arbitrary fluorescence units) [11]: 5
fluorescence units (arbitrary fluorescence units) [12]: 242
fluorescence units (arbitrary fluorescence units) [13]: 164
fluorescence units (arbitrary fluorescence units) [14]: 346
fluorescence units (arbitrary fluorescence units) [15]: 35
fluorescence units (arbitrary fluorescence units) [16]: 438
Substance: 142-23.3 anti H-2 K^b monoclonal antibody
